Measured values reported in paper PMC11111636 (EJNMMI Radiopharmacy and Chemistry, 2024).

Legend:
[1] = Ex vivo biodistribution in H69-tumor bearing mice; settings: mouse, in vivo; for tissue uptake at 4 h / tissue uptake at 1 h / tissue uptake at 24 h: n = 4; for tissue uptake at 1 h: 1 h p.i.; for tissue uptake at 24 h: 24 h p.i.
Protocol: (§1) Six-week‐old female Balb/c nu/nu‐specific mice (Janvier Labs, Le Genest‐Saint‐Isle, France) were housed in individually ventilated cages (4 mice/cage). Upon arrival, mice were acclimated for one week, with access to food and water ad libitum. Mice were subcutaneously inoculated on the right shoulder with NCI-H69 cells (5 × 10^6 cells) suspended in 100 μL of 1/3 Matrigel (Corning Inc.; Corning, NY, USA) and 2/3 Hank’s balanced salt solution (Gibco; Paisley, UK). NCI-H69 xenografts were allowed to grow for 2 weeks.
(§2) At 3 selected time points (1, 4 and 24 h; n = 4) p.i., blood was collected via retro-orbital puncture under isoflurane/O2 anesthesia, after which the mice were sacrificed via cervical dislocation. The tumor and organs of interest (heart, lungs, liver, spleen, stomach, large intestine, small intestine, pancreas, kidneys, muscle, skin, bone) were excised, washed in PBS and blotted dry. […] To determine the total injected radioactivity per animal, a calibration curve with indium-111 was established using the gamma counter. The percentage of injected dose per gram (% ID/g) was determined for each tissue and corrected for both the injected activity and % ID present at the injection site (the tail). Then, the tumor and the organs were placed in a petri dish and ex vivo optical imaging was performed with the IVIS Spectrum system (Perkin Elmer, Waltham, MA, USA) using the following settings for all measurements: FOV 19.5 cm, medium binning, f2, 60 s exposure with an excitation/emission filter of 646 nm/662 nm. Living Image version 4.5.2 software (Perkin Elmer) was used to perform data analysis by drawing regions of interest around the organ/tissue to quantify the radiant efficiency {(photons/second/cm^2/steradian)/(μW/cm^2)}.

[2] = test system: H69-xenograft Balb/c nu/nu mice; experiment: Ex vivo biodistribution in H69-tumor bearing mice; settings: for Tumor uptake lower than the tumor uptake of [111In]In-DOTA-TATE: P < 0.05
Protocol: as §1, §2

[3] = in vitro; settings: mouse, mouse serum, Mouse serum (%) intact labeled ligand, 37 °C, n = 1
Protocol: Stability of the radiolabeled peptide was monitored at 1, 4 and 24 h post incubation. The samples in PBS were directly analyzed by radio-HPLC without any pretreatment. However, samples in mouse serum were mixed with an equal volume of acetonitrile to precipitate the proteins. The solution was centrifuged for 10 min at 13,000 rpm and the supernatant was analyzed by radio-HPLC.

[4] = Protocol: Distribution coefficient was determined by a shake-flask method. […] The vial was vortexed vigorously and then centrifuged at 10,000 rpm for 10 min for phase separation. Samples (100 μL) of the n-octanol and aqueous phases were taken and measured in the gamma counter. LogD7.4 value was calculated by using the following equation: LogD7.4 = log [(counts in n-octanol phase)/(counts in aqueous phase)]. Measurements were performed in triplicates.
[5] = test system: U2OS.SSTR2 cells; experiment: Uptake/internalization studies in U2OS.SSTR2 cells; assay type: cell-based, human
Protocol: Cells were seeded in 6-well plates 24 h before the experiment (7 × 10^5 cells/well). […] The membrane-bound fraction was collected by incubating cells with an acid buffer (50 mM glycine, 100 mM NaCl, pH 2.8) for 10 min at rt. The internalized fraction was determined by lysing the cells with 1 M NaOH for 5 min at rt. Both fractions were measured in a gamma counter, and data were analyzed in GraphPad Prism v9 and expressed as percentage of added dose.

[6] = In vitro stability in PBS (radio-HPLC); assay type: physicochemical; settings: 37 °C; for PBS (%) intact labeled ligand: n = 1
[7] = iv, 2 nmol, Uptake in Intestines

## C[C@@H](O)[C@H](NC(=O)[C@@H]1CSSC[C@H](NC(=O)[C@@H](Cc2ccccc2)NC(=O)CCC(C(=O)O)N2CCN(CC(=O)O)CCN(Cc3cccc(COCCCn4nnc5c4-c4ccccc4N(C(=O)CCCCCNC(=O)CCCCC[N+]4=C(C=CC=CC=C6N(C)c7ccc(S(=O)(=O)[O-])cc7C6(C)C)C(C)(C)c6cc(S(=O)(=O)O)ccc64)Cc4ccccc4-5)n3)CCN(CC(=O)O)CC2)C(=O)N[C@@H](Cc2ccc(O)cc2)C(=O)N[C@H](Cc2c[nH]c3ccccc23)C(=O)N[C@@H](CCCCN)C(=O)N[C@@H]([C@@H](C)O)C(=O)N1)C(=O)O (some centres unmarked) [[^111In]In-eTFC-01, metal not drawn]
[1]; 2 nmol, Tumor uptake, from 1 h to 24 h post injection
  tissue uptake: 2 to 3 %ID/g
[1]; Uptake in Blood, 4 h block (co-injected 50 nmol DOTA-TATE)
  tissue uptake at 4 h: 4.11 ± 0.16 %ID/g
[1]; Uptake in Bones, 4 h block (co-injected 50 nmol DOTA-TATE)
  tissue uptake at 4 h: 1.53 ± 0.27 %ID/g
[1]; Uptake in Heart, 4 h block (co-injected 50 nmol DOTA-TATE)
  tissue uptake at 4 h: 2.14 ± 0.46 %ID/g
[1]; Uptake in Intestines, 4 h block (co-injected 50 nmol DOTA-TATE)
  tissue uptake at 4 h: 1.48 ± 0.13 %ID/g
[1]; Uptake in Kidneys, 4 h block (co-injected 50 nmol DOTA-TATE)
  tissue uptake at 4 h: 46.6 ± 6.34 %ID/g
[1]; Uptake in Liver, 4 h block (co-injected 50 nmol DOTA-TATE)
  tissue uptake at 4 h: 10.6 ± 1.55 %ID/g
[1]; Uptake in Lungs, 4 h block (co-injected 50 nmol DOTA-TATE)
  tissue uptake at 4 h: 6.05 ± 0.59 %ID/g
[1]; Uptake in Muscle, 4 h block (co-injected 50 nmol DOTA-TATE)
  tissue uptake at 4 h: 0.67 ± 0.08 %ID/g
[1]; Uptake in Pancreas, 4 h block (co-injected 50 nmol DOTA-TATE)
  tissue uptake at 4 h: 0.95 ± 0.23 %ID/g
[1]; Uptake in Skin, 4 h block (co-injected 50 nmol DOTA-TATE)
  tissue uptake at 4 h: 3.61 ± 0.4 %ID/g
[1]; Uptake in Spleen, 4 h block (co-injected 50 nmol DOTA-TATE)
  tissue uptake at 4 h: 3.97 ± 0.9 %ID/g
[1]; Uptake in Stomach, 4 h block (co-injected 50 nmol DOTA-TATE)
  tissue uptake at 4 h: 0.43 ± 0.12 %ID/g
[1]; Uptake in Tumor, 4 h block (co-injected 50 nmol DOTA-TATE)
  tissue uptake at 4 h: 1.81 ± 0.14 %ID/g
[1]; iv, 2 nmol, Uptake in Blood
  tissue uptake at 1 h: 6.96 ± 0.68 %ID/g
  tissue uptake at 24 h: 0.64 ± 0.11 %ID/g
[1]; iv, 2 nmol, Uptake in Blood, 4 h p.i.
  tissue uptake at 4 h: 4.7 ± 0.24 %ID/g
[1]; iv, 2 nmol, Uptake in Bones
  tissue uptake at 1 h: 2.29 ± 0.17 %ID/g
  tissue uptake at 24 h: 0.98 ± 0.21 %ID/g
[1]; iv, 2 nmol, Uptake in Bones, 4 h p.i.
  tissue uptake at 4 h: 1.7 ± 0.23 %ID/g
[1]; iv, 2 nmol, Uptake in Heart
  tissue uptake at 1 h: 4.14 ± 0.76 %ID/g
  tissue uptake at 24 h: 0.74 ± 0.12 %ID/g
[1]; iv, 2 nmol, Uptake in Heart, 4 h p.i.
  tissue uptake at 4 h: 2.5 ± 0.17 %ID/g
[1]; [7]
  tissue uptake at 1 h: 1.85 ± 0.24 %ID/g
  tissue uptake at 24 h: 0.44 ± 0.09 %ID/g
[1]; iv, 2 nmol, Uptake in Intestines, 4 h p.i.
  tissue uptake at 4 h: 1.85 ± 0.24 %ID/g
[1]; iv, 2 nmol, Uptake in Kidneys
  tissue uptake at 1 h: 33.2 ± 3.27 %ID/g
  tissue uptake at 24 h: 30.6 ± 5.9 %ID/g
[1]; iv, 2 nmol, Uptake in Kidneys, 4 h p.i.
  tissue uptake at 4 h: 36.6 ± 2.02 %ID/g
[1]; iv, 2 nmol, Uptake in Liver
  tissue uptake at 1 h: 8.88 ± 0.9 %ID/g
  tissue uptake at 24 h: 6.03 ± 1.14 %ID/g
[1]; iv, 2 nmol, Uptake in Lungs
  tissue uptake at 1 h: 8.07 ± 1.18 %ID/g
  tissue uptake at 24 h: 1.75 ± 0.19 %ID/g
[1]; iv, 2 nmol, Uptake in Lungs, 4 h p.i.
  tissue uptake at 4 h: 7.71 ± 0.87 %ID/g
[1]; iv, 2 nmol, Uptake in Muscle
  tissue uptake at 1 h: 1.07 ± 0.1 %ID/g
  tissue uptake at 24 h: 0.26 ± 0.05 %ID/g
[1]; iv, 2 nmol, Uptake in Muscle, 4 h p.i.
  tissue uptake at 4 h: 0.73 ± 0.08 %ID/g
[1]; iv, 2 nmol, Uptake in Pancreas
  tissue uptake at 1 h: 1.99 ± 0.26 %ID/g
  tissue uptake at 24 h: 0.64 ± 0.18 %ID/g
[1]; iv, 2 nmol, Uptake in Pancreas, 4 h p.i.
  tissue uptake at 4 h: 1.28 ± 0.17 %ID/g
[1]; iv, 2 nmol, Uptake in Skin
  tissue uptake at 1 h: 5.73 ± 1.28 %ID/g
  tissue uptake at 24 h: 1.54 ± 0.35 %ID/g
[1]; iv, 2 nmol, Uptake in Skin, 4 h p.i.
  tissue uptake at 4 h: 3.78 ± 0.35 %ID/g
[1]; iv, 2 nmol, Uptake in Spleen
  tissue uptake at 1 h: 5.09 ± 0.72 %ID/g
  tissue uptake at 24 h: 2.03 ± 0.43 %ID/g
[1]; iv, 2 nmol, Uptake in Spleen, 4 h p.i.
  tissue uptake at 4 h: 3.58 ± 1.02 %ID/g
[1]; iv, 2 nmol, Uptake in Stomach
  tissue uptake at 1 h: 2.66 ± 0.49 %ID/g
  tissue uptake at 24 h: 0.77 ± 0.22 %ID/g
[1]; iv, 2 nmol, Uptake in Stomach, 4 h p.i.
  tissue uptake at 4 h: 1.41 ± 0.19 %ID/g
[1]; iv, 2 nmol, Uptake in Tumor
  tissue uptake at 1 h: 2.56 ± 0.38 %ID/g
  tissue uptake at 24 h: 2.21 ± 0.31 %ID/g
[1]; iv, 2 nmol, Uptake in Tumor, 4 h p.i.
  tissue uptake at 4 h: 3.04 ± 0.49 %ID/g
[2]; 1 h p.i.
  Tumor uptake lower than the tumor uptake of [111In]In-DOTA-TATE: 54%
[2]; 4 h p.i., compared to the unblocked group
  Tumor uptake reduction by co-injection of an excess of DOTA-TATE: 40%
[2]; 24 h p.i.
  Tumor uptake lower than the tumor uptake of [111In]In-DOTA-TATE: 31%
[3]; 1 h
  remaining at 1 h: 97.9%
[3]; 4 h
  remaining at 4 h: 86%
[3]; 24 h
  remaining at 24 h: 71%
[4]; n-octanol/PBS pH 7.4, n = 3
  LogD7.4: negative
[4]; pH 7.4
  logD: -0.7 ± 0.06
[5]; 10^-9 M, 90 min, 37 °C
  Internalized fraction of radioactivity: 97%
[5]; 10^-9 M, 90 min, 37 °C, % of added dose per 1,000,000 cells, n = 3
  Total uptake: 20.87 ± 1.92 % AD
[5]; 50-fold excess DOTA-TATE
  Cell uptake with excess of unlabeled DOTA-TATE: almost completely blocked
  Drop of the cell uptake in presence of an excess of DOTA-TATE: 95%
[6]; up to 24 h
  Degradation in PBS buffer: No degradation
[6]; 1 h
  PBS (%) intact labeled ligand: 99.0%
[6]; 4 h
  PBS (%) intact labeled ligand: 99.0%
[6]; 24 h
  PBS (%) intact labeled ligand: 99.0%
